# Data reported in paper PMC11645210.
# pKd: −log10 of the molar value.
# How the values were obtained:
# [1] = biological target: SARS-CoV-2 BA.2.86 Hexapro S ectodomain (SARS-CoV-2) (UniProt P0DTC2); assay: cryo-EM structure
# [2] = biological target: SARS-CoV-2 XBB.1.5 + L455F RBD (SARS-CoV-2) (UniProt P0DTC2); assay: SPR
# [3] = biological target: SARS-CoV-2 XBB.1.5 + L455S RBD (SARS-CoV-2) (UniProt P0DTC2); assay: SPR
Substance,stoichiometry N [1],pKd [2],koff [2],kon [2],pKd [3],koff [3],kon [3]
SARS-CoV-2 BA.2.86 Hexapro S ectodomain (from UniProt P0DTC2 14-1204) (domain or fragment),3,–,–,–,–,–,–
VIR-7229 Fab fragment,–,9.71,0.000113 s⁻¹,604000 M⁻¹ s⁻¹,9.70,0.000106 s⁻¹,543000 M⁻¹ s⁻¹
